Reference: PMC13169712
Where a chain is given by its changes, count along the chain named. In names and notes the source's numbering stands. Each block holds one binder with its values, some of them ahead of it. Square brackets hold non-standard residues; d marks the D form. Ends that are not written are not given here. Hyp = O=C(O)[C@@H]1C[C@@H](O)CN1

Legend:
[1] = target: 38B7 human IgE mAb (human); assay: SPR; Carterra LSA; antibody as ligand, allergen or peptide as analyte; how the antibody was held for these pairs is not told
1H9 human IgE mAb = assay: ELISA; settings: chain shown with the change; mAb 10 µg/mL (highest point of the titration); parent: est. 3.3; read off a plot
8F3 human IgE mAb = assay: ELISA; settings: chain shown with the change; mAb 10 µg/mL (highest point of the titration); parent: est. 3.6; read off a plot
13D9 human IgE mAb = assay: ELISA; settings: chain shown with the change; mAb 10 µg/mL (highest point of the titration); parent: est. 3.5; read off a plot
16A8 human IgE mAb = assay: ELISA; settings: chain shown with the change; mAb 10 µg/mL (highest point of the titration); parent: est. 3.4; read off a plot
Sequence of 16A8 human IgE mAb (chain, as listed by the source, chain 1 of 2): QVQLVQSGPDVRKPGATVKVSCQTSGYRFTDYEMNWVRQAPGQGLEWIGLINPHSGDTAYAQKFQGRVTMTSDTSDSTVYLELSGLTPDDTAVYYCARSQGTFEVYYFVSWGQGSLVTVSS
Sequence of 16A8 human IgE mAb (chain, as listed by the source, chain 2 of 2): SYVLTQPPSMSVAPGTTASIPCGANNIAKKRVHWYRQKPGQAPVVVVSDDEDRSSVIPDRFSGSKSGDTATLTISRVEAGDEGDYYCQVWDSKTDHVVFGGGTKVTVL

Sequence of 13D9 human IgE mAb (chain, as listed by the source, chain 1 of 2): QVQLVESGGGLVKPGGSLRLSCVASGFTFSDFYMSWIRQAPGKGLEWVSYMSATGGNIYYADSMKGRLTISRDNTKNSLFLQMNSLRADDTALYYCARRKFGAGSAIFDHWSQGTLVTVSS
Sequence of 13D9 human IgE mAb (chain, as listed by the source, chain 2 of 2): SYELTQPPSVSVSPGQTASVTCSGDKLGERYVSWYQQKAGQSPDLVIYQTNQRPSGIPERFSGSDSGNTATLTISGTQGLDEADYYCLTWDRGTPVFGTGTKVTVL
Sequence of 38B7 human IgE mAb (human) (heavy, as listed by the source, chain 1 of 2): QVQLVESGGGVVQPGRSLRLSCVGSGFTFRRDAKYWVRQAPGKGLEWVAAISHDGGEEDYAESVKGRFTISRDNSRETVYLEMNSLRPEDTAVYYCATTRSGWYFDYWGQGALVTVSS
Sequence of 38B7 human IgE mAb (human) (light, as listed by the source, chain 2 of 2): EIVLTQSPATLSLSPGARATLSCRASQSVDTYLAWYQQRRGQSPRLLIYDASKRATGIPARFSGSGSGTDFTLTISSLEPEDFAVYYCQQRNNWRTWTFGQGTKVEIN
Sequence of 1H9 human IgE mAb (chain, as listed by the source, chain 1 of 2): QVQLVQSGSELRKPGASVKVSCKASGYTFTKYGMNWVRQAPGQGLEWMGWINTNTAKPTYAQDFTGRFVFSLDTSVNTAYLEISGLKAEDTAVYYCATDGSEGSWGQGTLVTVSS
Sequence of 1H9 human IgE mAb (chain, as listed by the source, chain 2 of 2): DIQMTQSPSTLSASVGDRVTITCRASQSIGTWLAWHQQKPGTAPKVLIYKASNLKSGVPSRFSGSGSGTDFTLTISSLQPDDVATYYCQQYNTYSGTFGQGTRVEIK
Sequence of 8F3 human IgE mAb (chain, as listed by the source, chain 1 of 2): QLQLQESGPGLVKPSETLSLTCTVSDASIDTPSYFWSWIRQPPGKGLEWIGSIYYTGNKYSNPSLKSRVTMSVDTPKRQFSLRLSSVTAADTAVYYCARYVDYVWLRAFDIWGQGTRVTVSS
Sequence of 8F3 human IgE mAb (chain, as listed by the source, chain 2 of 2): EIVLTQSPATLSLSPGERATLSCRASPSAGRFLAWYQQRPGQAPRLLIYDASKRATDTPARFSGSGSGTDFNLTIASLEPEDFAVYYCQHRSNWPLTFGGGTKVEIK

B3: Ara h 6c R90Q; Q91A (protein)
chain: SCERQVDRVNLKPCEQHIMQRIMGEQEQYDSYDIRSTRSSDQQQRCCDELNEMENTQGCMCEALQQIMENQCDRLQDQAMVQQFKRELMSLPQQCNFRAPQRCDLDVSGGRC
- response (1H9 human IgE mAb): 1.6 OD 450nm
- response (8F3 human IgE mAb): 3.6 OD 450nm
- response (13D9 human IgE mAb): 3.5 OD 450nm
- response (16A8 human IgE mAb): 3.4 OD 450nm

B4: Ara h 6c Q113R; R114E (protein)
chain: B3 chain with Q78R, A79Q, Q101R, R102E
- response (1H9 human IgE mAb): 3.4 OD 450nm
- response (13D9 human IgE mAb): 3.5 OD 450nm
- response (16A8 human IgE mAb): 2.6 OD 450nm

B5: Ara h 6c D19R; E27A; N82A (protein)
chain: B3 chain with D7R, E15A, N70A, Q78R, A79Q
- response (13D9 human IgE mAb): 1.6 OD 450nm

Next, values leading:

- Kd [1]: 0.02 µM
- koff [1]: 0.00198 s⁻¹
- kon [1]: 101000 M⁻¹ s⁻¹
B1: hydroxylated DPYSPS containing peptide (…^OHSQD) (peptide)
peptide: EDSYERDPYS[Hyp]SQD

- Kd [1]: 7.1 µM
- koff [1]: 0.0887 s⁻¹
- kon [1]: 16900 M⁻¹ s⁻¹
B2: nonhydroxylated DPYSPS containing peptide (…) (peptide)
peptide: EDSYERDPYSPSQD
